According to publication PMC4260453 (Molecular microbiology, 2011):
Blank lines part the entries; values can stand above or below the binder they belong to.

Molecular target: T1, DnaE (Bacillus subtilis, UniProt O34623 1-1115)
T1 sequence: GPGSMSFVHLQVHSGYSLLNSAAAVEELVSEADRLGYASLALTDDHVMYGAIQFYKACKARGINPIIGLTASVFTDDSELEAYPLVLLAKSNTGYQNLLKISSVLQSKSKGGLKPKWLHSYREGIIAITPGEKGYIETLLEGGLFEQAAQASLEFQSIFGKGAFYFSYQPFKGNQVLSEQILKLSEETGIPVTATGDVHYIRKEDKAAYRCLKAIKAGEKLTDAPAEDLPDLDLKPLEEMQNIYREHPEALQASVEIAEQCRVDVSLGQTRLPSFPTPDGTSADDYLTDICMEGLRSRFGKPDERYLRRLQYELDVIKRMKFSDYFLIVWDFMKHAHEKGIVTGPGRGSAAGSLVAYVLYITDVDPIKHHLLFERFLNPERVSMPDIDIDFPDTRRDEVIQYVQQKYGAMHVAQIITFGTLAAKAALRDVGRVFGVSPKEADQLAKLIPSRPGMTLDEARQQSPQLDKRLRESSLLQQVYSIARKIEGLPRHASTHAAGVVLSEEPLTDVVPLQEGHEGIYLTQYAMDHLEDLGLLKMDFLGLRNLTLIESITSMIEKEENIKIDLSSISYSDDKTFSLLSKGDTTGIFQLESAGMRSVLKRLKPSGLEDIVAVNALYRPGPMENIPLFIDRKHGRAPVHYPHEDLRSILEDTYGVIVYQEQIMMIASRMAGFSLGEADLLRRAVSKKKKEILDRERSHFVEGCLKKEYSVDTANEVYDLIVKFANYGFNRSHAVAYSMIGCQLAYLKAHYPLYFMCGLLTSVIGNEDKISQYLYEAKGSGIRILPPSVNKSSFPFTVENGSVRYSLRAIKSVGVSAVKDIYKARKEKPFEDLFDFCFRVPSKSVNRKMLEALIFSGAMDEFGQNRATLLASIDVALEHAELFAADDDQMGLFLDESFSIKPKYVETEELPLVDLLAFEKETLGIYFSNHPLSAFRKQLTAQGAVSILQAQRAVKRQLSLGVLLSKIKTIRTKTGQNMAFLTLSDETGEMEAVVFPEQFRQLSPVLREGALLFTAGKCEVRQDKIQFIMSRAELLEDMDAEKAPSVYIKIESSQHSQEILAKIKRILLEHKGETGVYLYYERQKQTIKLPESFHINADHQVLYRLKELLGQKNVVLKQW
Experiment: far-Western, overlay or dot blot

binding result: binds
B1: His6-SSB (natural protein, Bacillus subtilis, UniProt P37455 1-172, looked up)
chain: MLNRVVLVGRLTKDPELRYTPNGAAVATFTLAVNRTFTNQSGEREADFINCVTWRRQAENVANFLKKGSLAGVDGRLQTRNYENQQGQRVFVTEVQAESVQFLEPKNGGGSGSGGYNEGNSGGGQYFGGGQNDNPFGGNQNNQRRNQGNSFNDDPFANDGKPIDISDDDLPF

binding result: binds
B2: MutS (natural protein, Bacillus subtilis)
chain: GPGSMAGYTPMIQQYLKIKAEHQDAFLFFRLGDFYEMFFEDAKKASQELEITLTSRDGGAAEKIPMCGVPYHSASAYIEQLIKKGYKVAICEQTEDPKAAKGVVKREVVQLITPGTVMDGKGIHESENNFIASVSACSNGYGLALSDLTTGENLAVLIERLEDVISEIYSVGAREIVVSGSLDADTVAQLRERCGATISIEDGETDEHVTIIEHLNNEDITKTFLRLYTYLKRTQKRSLDHLQPVQVYELEEAMKIDLYSKRNLELTETIRSKNKKGSLLWLLDETKTAMGGRLLKQWIDRPLIRVNQIEERQEMVETLMSHFFEREDLRERLKEVYDLERLAGRVAFGNVNARDLIQLKESLKQVPGIKQLVASLAHDKAKERAKRIDPCGDVLELLEEALYENPPLSVKEGNLIKDGYNQKLDEYRDASRNGKDWIARLEQQEREYTGIRSLKVGFNKVFGYYIEVTKANLHLLEEGRYERKQTLTNAERYITPELKEKEALILEAENNICELEYELFTELREKVKQYIPRLQQLAKQMSELDALQCFATISENRHYTKPEFSKDEVEVIEGRHPVVEKVMDSQEYVPNNCMMGDNRQMLLITGPNMSGKSTYMRQIALISIMAQIGCFVPAKKAVLPIFDQIFTRIGAADDLISGQSTFMVEMLEAKNAIVNATKNSLILFDEIGRGTSTYDGMALAQAIIEYVHDHIGAKTLFSTHYHELTVLEDKLPQLKNVHVRAEEYNGTVVFLHQIKEGAADKSYGIHVAQLAELPGDLIARAQDILKELEHSGNKPEVPVQKPQVKEEPAQLSFFDEAEKPAETPKLSKKEKQVIDAFKSLNILDMTPLEAMNEMYKLQKKLH
